Experimental data taken from patent US20080026992.

Experiments:
[1] = tested on: mutant p27 Y88F, phosphorylated on Tyr-89 by recombinant Abl kinase
[2] = tested on: p27Kip1, recombinant, tyrosine-phosphorylated in vitro by Abl kinase (Tyr-88 phosphorylated p27)
[3] = tested on: p27Kip1, recombinant, unphosphorylated

Chain of mutant p27 Y88F, phosphorylated on Tyr-89 by recombinant Abl kinase (chain, as listed by the source Y88F): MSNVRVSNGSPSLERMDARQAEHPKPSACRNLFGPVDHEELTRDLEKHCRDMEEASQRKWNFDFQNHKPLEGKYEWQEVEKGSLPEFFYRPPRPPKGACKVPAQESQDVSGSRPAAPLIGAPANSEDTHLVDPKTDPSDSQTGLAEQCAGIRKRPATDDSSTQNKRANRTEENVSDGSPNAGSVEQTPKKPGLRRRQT

CDK2/cyclin A complex, recombinant, purified from Sf9 insect cells
phosphorylation of Thr-187 of p27 in CDK2 kinase complexes (Western blot with a phospho-threonine 187 specific antibody) [1]: a mutant phosphorylated on Tyr-89 is not a good substrate for CDK2-dependent phosphorylation (FIG. 5b)
phosphorylation of Thr-187 of p27 in CDK2 kinase complexes (Western blot with a phospho-threonine 187 specific antibody) [2]: Phosphorylation of Thr-187 was indeed strongly enhanced if Tyr-88 phosphorylated p27 was incubated in CDK2 kinase complexes (FIG. 5b)
phosphorylation of p27 by CDK2 within p27/CDK2/cyclin A complexes (32P incorporation) [2]: the tyrosine phosphorylated protein was a good substrate for CDK2 phosphorylation (FIG. 5a)
phosphorylation of p27 by CDK2 within p27/CDK2/cyclin A complexes (32P incorporation) [3]: As expected, p27 was poorly phosphorylated due to the absence of free kinase
